Laboratory results reported in publication PMC4899731.

Target: F-actin (filamentous actin) of the Actin Binding Protein Biochem Kit (BK013, Cytoskeleton) (UniProt P60709)
Test: co-sedimentation; F-actin spin-down assay with the Actin Binding Protein Biochem Kit (BK013, Cytoskeleton), according to manufacturer instructions; ultracentrifugation, SDS-PAGE, Coomassie staining, signals quantified

percent detected in the pellet with F-actin: 37%
Substance: cyclin A2-GST (glutathione S-transferase) (from UniProt P20248 1-432) (natural protein)
